# According to publication PMC7954794, “Protein context shapes the specificity of SH3 domain-mediated interactions in vivo” (Nature Communications, 2021):
# Test system: PPIs identified as affected by the SH3 domain deletions
# Assay: Liquid DHFR-PCA low-throughput validation of PPIs affected by SH3 deletion (Fig. S1D-E)
# Format: cell-based, Saccharomyces cerevisiae
# Details: Deletedscore/WTscore
# Summary of the method: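 Yeast diploids from DHFR-PCA mating grown 48 h in synthetic complete MSG medium pH 6.0 with NAT and HPH, normalized to 1 OD and diluted to 0.1 OD in liquid PCA selection medium. Growth followed by OD every 15 min for 72 h at 30 °C.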
molecule,measurement,setting,value
"SHO1 (protein, UniProt P40073 1-367, looked up) High osmolarity signaling …: MSISSKIRPTPRKPSRMATDHSFKMKKFYADPFAISSISLAIVSWVIAIGGSISSASTNESFPRFTWWGIVYQFLIICSLMLFYCFDLVDHYRIFITTSIAVAFVYNTNSATNLVYADGPKKAAASAGVILLSIINLIWILYYGGDNASPTNRWIDSFSIKGIRPSPLENSLHRARRRGNRNTTPYQNNVYNDAIRDSGYATQFDGYPQQQPSHTNYVSSTALAGFENTQPNTSEAVNLHLNTLQQRINSASNAKETNDNSNNQTNTNIGNTFDTDFSNGNTETTMGDTLGLYSDIGDDNFIYKAKALYPYDADDDDAYEISFEQNEILQVSDIEGRWWKARRANGETGIIPSNYVQLIDGPEEMHR",Ratio,prey YJL128C_1,0.6814
same,Ratio,prey YOR042W_1,0.502
